The source of these data is patent US20240294622A1 (SUZHOU TRANSCENTA THERAPEUTICS, published 2024).

For test [1], the target named is T1, HGREM1-His (ACRO) (human, UniProt O60565 25-184).
T1 construct: Lys25-Asp184 of NP_037504 with C-terminal polyhistidine tag (ACRO GR1-H52H3); they are put here; also called hGREM1 (ACRO); human gremlin (ACRO)
T1 sequence: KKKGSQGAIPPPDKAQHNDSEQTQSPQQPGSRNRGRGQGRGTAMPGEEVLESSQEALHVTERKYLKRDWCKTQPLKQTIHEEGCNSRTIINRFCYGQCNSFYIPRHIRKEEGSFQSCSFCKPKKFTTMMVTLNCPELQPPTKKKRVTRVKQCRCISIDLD
Description: BLI Fortebio, human gremlin-his on NTA biosensor, antibody 100, 50, 25 nM. The method, then: The affinity of the humanized antibodies were also measured by Fortebio. Human gremlin protein was diluted with kinetics buffer to get a concentration of 2 μg/ml. 0 nM was used as a reference control. Antibodies to be tested were diluted with ForteBio kinetics buffer (PBS pH 7.4, 0.1% BSA+0.002% Tween-20) to a concentration of 100 nM, 50 nM, and 25 nM. Human gremlin-his was immobilized onto NTA biosensor. The baseline was detected for 60 seconds, and then anti-gremlin antibody association was detected for 120 seconds to get the Kₒₙ factor data. Followed by dissociation in kinetic buffer for 90 seconds to get the Koff factor data.

Test [2] concerns the target T2, DAN-his (Sinobiological) (human, UniProt P41271 17-181, limits assumed).
T2 construct: also called DAN (Sinobiological); human DAN-his
T2 sequence (looked up): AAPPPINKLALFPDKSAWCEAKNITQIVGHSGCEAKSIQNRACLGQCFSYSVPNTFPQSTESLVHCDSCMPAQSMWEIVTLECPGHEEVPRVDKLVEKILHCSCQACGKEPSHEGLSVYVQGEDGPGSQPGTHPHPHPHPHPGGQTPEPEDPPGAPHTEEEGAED
Description: blocking ELISA: coated BMP4, antibody pre-incubated with human DAN-his, anti-his HRP; blocked ligand BMP4; unit from the axis Concentration(nM) [Continued]. The procedure:
(§1) Plates were coated with recombinant human BMP2/4 (0.5 μg/ml) overnight. Then the plates were washed once on an automatic plate washer using PBS+0.1% Tween 20 (Sigma). 100 μl of block solution consisting of PBS+1% BSA+1% normal goat serum+0.5% Tween 20 (Sigma) was added to each well and incubated at room temperature for 2 hours. Then the plates were washed three 3 times. Then 55 ul serial dilutions of chimeric antibodies 36F5 and 55 ul […] of human DAN-his in dilution buffer containing PBS+1% BSA+1% normal goat serum+0.01% Tween 20 separately were mixed and incubated for 1 h at RT before 100 ul of this complex was added to coated plates and allowed to incubate for an additional hour at room temperature. The plates were then washed 3 times and added with 100 ul of anti-his HRP (GenScript) in dilution buffer. Plates were then developed with a TMB solution and stopped by adding stop solution. After wash three times with wash buffer, the plates were read on a plate reader at 450 nm. Also, consistent with previous result, besides blocking gremlin activity, 36F5 could block BMP2/4 binding to DAN protein. (FIGS. 20A and 20B).
For orientation: In an ELISA, binding on a coated surface is turned into a signal by an enzyme label.

Test [3] has as its target T2, DAN-his (Sinobiological). Description: ELISA on coated DAN-his; unit from the axis label Ab(ug/ml), the table prints none. The method, then: (§2) Clear polystyrene plates (BEAVER) were coated with 100 μl/well of a 0.5 μg/ml human gremlin (ACRO) and DAN (Sinobiological) in high pH coating buffer overnight at 4° C. Then the plates were washed once on an automatic plate washer using PBS+0.1% Tween 20 (Sigma). 100 μl of block solution consisting of PBS+1% BSA+1% normal goat serum+0.5% Tween 20 (Sigma) was added to each well and incubated at room temperature for 2 hours. Then 100 ul of antibodies (hybridoma or chimeric antibody 36F5, chimeric antibody 67G11, chimeric antibody 42B9) in antibody dilution buffer containing PBS+1% BSA+1% normal goat serum+0.01% Tween 20 starting from 2 μg/ml (13.33 nM) and then 4 fold serial dilution were added to each well of the plate and incubated for 1 hours at room temperature. Afterward the plates were washed three times with 200 ul of PBS+0.1% Tween20 followed by adding 100 μl/well 1:10000 Goat anti mouse IgG-HRP or mouse anti-human IgG-HRP (abcam), and incubate for 1 hour at room temperature. They were then washed 3× with PBS+0.1% Tween20. Finally, 100 μl/well of TMB (InnoReagents) was added to each well and after 2 minutes add 50 ul of stop solution to each well. The plates were read on a Multiscan FC microplate reader (Thermo Scientific) at 450 nm.

The target of test [4] is T2, DAN-his (Sinobiological). Description: ELISA on coated DAN-his; unit from the axis Ab(nM); panel called FIG. 19C in the text. The procedure:
as §2

The target of test [5] is T1, HGREM1-His (ACRO). The test is described as follows: ELISA on coated Gremlin-his; unit from the axis label Ab(ug/ml), the table prints none. The method, then:
as §2

Test [6] concerns the target T1, HGREM1-His (ACRO). Description: competition ELISA, Gremlin-his 0.25 ug/ml binding to coated FGFR1-Fc. The method, then: Next, 0.25 μg/ml of gremlin was selected to test the blocking activity. The ability of antibodies to block Gremlin binding to human FGFR1-Fc was examined via ELISA. Plates were coated with recombinant FGFR1-Fc (2 μg/ml) overnight and then serial dilutions of antibodies were incubated with 0.25 μg/ml of human Gremlin-his modified for 1 h at RT before this complex was added to coated plates and allowed to incubate for an additional hour at RT. The plates were then washed and added with anti-his HRP (GenScript). Plates were then developed with a TMB solution and stopped by adding stop solution. The plates were read on a plate reader at 450 nm. […] Humanized anti-GREM1 antibodies provided herein (e.g., Hu14E3, Hu22F1) are expected to show the similar technical effect as their chimeric counterparts in blocking the binding of hGREM1 to FGFR1.

The target of test [7] is T2, DAN-his (Sinobiological). Description: blocking ELISA: coated BMP2, antibody pre-incubated with human DAN-his, anti-his HRP; blocked ligand BMP2; unit from the axis Concentration(nM). The procedure: as §1
The target in test [8] is T1, HGREM1-His (ACRO). The test is described as follows: ELISA on coated human Gremlin-his; unit from the axis Ab(nM); panel called FIG. 19C in the text. The procedure:
as §2

B1: humanized anti-gremlin1 antibody 14E3 (variant not stated) (antibody, V domains shown)
VH: QVQLVQSGSELKKPGASVKVSCKASGYTFTTYGMAWMRQAPGQGLEWMGWINTLSGEPTYADDFKGRFVFSLDTSVSTAYLQISSLKAEDTAVYYCAREPMDYWGQGTMVTVSS
VL: DVVMTQSPLSLPVTLGQPASISCKSSQSLLDSDGKTYLSWLQQRPGQSPRRLIYLVSKLDSGVPDRFSGSGSGTDFTLKISRVEAEDVGVYYCWQGAHFPLTFGQGTKLEIK
notes: also called Hu14E3; humanized 14E3
As to B1, the Kd (usually the concentration at which binding is half-saturated) in test [1] is under 1 nM.

B2: chimeric antibody 36F5 (36F5-chi) (antibody, human IgG1, V domains shown)
VH: QVQLQQSGAELARPGASVKLSCKASGYSFTSSGIGWVKQRSGQGLEWIGEIYPRSGNTYNNEKFKGKATLTADKSSSTVYMELRSLTSEDSAVYFCVREAYSHHYYAMDYWGQGTSVTVFS
VL: DVLMTQTPLSLPVSLGGQASISCRSSQSLLHSNGNTYLEWYLQKPGQSPKLLIYKVSNRFSGVPDRLSGSGSGTDFTLKISRVEAEDLGVYYCFQGSHVPFTFGSGTKLEIN
notes: also called chimeric 36F5
As for B2, the results for the IC50 in test [2], in test [6] and in test [7] were 3.93 nM, 1.37 nM and 3.29 nM, respectively. Further, the EC50 (in general, the concentration needed to bring the measured effect to its halfway point) is 0.02 µg/mL in test [3], 0.0211 nM in test [4], 0.0238 µg/mL in test [5] and 0.0183 nM in test [8].
